Patent US20150258180A1 (UNIVERSITY OF MANITOBA, published 2015)
One block for each binder: values may come before it.

Legend:
[1] = target: T1, human GM2 activator protein (GM2AP), recombinant, P17900
T1 chain: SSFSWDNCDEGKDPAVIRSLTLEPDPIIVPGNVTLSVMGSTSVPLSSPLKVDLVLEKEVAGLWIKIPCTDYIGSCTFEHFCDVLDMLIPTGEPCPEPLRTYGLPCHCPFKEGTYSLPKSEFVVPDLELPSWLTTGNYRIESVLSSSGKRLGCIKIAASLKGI

[2] = target: plasma membrane mannose-6-phosphate receptor of human Tay-Sachs fibroblasts (human, UniProt P11717 41-2491); assay: cell-based or functional assay
Sequence of plasma membrane mannose-6-phosphate receptor of human Tay-Sachs fibroblasts (P11717 41-2491): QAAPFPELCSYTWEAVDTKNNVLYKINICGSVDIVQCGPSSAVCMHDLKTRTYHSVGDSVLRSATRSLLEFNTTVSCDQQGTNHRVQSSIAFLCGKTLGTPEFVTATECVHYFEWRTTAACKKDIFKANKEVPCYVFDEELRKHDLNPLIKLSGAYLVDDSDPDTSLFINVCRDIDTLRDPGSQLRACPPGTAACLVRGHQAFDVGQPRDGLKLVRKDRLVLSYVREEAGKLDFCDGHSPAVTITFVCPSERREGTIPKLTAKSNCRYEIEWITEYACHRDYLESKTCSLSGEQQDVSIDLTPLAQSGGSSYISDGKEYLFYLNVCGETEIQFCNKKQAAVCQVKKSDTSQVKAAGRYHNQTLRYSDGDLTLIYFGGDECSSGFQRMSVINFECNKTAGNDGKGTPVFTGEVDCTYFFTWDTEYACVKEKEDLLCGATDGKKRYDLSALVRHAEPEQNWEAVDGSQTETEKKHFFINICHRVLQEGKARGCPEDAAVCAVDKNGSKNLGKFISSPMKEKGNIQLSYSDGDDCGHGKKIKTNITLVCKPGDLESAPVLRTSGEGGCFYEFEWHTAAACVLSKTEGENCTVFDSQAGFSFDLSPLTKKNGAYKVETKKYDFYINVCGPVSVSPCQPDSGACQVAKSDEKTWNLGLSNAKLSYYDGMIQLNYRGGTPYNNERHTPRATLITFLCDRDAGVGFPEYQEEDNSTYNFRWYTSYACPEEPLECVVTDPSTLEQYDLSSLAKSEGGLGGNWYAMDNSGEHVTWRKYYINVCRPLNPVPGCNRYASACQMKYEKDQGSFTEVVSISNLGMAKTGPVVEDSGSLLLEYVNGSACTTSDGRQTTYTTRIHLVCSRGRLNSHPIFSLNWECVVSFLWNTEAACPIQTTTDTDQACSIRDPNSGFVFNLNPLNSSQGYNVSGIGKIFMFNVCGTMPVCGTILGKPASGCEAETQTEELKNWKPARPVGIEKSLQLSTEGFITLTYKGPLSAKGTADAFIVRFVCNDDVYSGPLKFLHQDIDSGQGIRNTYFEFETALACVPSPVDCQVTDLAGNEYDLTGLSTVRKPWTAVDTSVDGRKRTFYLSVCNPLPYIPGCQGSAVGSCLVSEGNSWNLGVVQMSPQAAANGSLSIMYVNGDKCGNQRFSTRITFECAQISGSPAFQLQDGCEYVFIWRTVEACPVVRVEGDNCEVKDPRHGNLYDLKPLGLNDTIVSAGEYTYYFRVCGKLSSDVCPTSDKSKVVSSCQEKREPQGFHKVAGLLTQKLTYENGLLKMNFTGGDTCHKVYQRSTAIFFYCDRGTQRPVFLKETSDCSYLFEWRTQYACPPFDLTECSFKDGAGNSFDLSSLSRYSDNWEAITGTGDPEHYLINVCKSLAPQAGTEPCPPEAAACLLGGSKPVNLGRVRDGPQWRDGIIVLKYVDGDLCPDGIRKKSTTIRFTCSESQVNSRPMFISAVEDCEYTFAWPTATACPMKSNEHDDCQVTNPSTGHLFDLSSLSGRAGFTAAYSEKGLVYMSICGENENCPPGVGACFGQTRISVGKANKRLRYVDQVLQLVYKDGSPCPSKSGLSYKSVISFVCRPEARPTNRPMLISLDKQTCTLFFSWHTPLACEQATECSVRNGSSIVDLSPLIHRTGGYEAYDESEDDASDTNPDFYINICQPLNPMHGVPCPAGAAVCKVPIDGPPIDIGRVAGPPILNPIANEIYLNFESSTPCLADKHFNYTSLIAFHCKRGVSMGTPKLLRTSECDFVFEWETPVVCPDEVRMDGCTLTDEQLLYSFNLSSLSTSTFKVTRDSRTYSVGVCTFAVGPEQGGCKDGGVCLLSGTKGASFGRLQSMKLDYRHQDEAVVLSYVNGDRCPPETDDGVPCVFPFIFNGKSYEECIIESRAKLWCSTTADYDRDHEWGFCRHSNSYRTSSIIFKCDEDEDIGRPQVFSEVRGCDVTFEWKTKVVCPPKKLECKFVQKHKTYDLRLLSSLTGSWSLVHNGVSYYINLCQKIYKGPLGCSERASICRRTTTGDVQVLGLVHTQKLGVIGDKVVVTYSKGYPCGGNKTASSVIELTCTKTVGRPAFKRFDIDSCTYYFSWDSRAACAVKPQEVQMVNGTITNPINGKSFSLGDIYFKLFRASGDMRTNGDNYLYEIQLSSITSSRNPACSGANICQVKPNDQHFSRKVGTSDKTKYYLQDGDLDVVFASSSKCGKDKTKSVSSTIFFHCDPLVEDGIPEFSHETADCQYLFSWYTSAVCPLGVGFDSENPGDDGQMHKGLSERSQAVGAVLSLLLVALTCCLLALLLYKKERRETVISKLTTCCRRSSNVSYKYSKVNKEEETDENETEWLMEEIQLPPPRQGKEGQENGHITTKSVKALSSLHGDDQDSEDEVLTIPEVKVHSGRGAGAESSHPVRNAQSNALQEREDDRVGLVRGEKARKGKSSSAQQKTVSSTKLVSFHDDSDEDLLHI

B1: Hex A (β-hexosaminidase A), purified from human placenta (protein)
chain 1: LWPWPQNFQTSDQRYVLYPNNFQFQYDVSSAAQPGCSVLDEAFQRYRDLLFGSGSWPRPYLTGKRHTLEKNVLVVSVVTPGCNQLPTLESVENYTLTINDDQCLLLSETVWGALRGLETFSQLVWKSAEGTFFINKTEIEDFPRFPHRGLLLDTSRHYLPLSSILDTLDVMAYNKLNVFHWHLVDDPSFPYESFTFPELMRKGSYNPVTHIYTAQDVKEVIEYARLRGIRVLAEFDTPGHTLSWGPGIPGLLTPCYSGSEPSGTFGPVNPSLNNTYEFMSTFFLEVSSVFPDFYLHLGGDEVDFTCWKSNPEIQDFMRKKGFGEDFKQLESFYIQTLLDIVSSYGKGYVVWQEVFDNKVKIQPDTIIQVWREDIPVNYMKELELVTKAGFRALLSAPWYLNRISYGPDWKDFYIVEPLAFEGTPEQKALVIGGEACMWGEYVDNTNLVPRLWPRAGAVAERLWSNKLTSDLTFAYERLSHFRCELLRRGVQAQPLNVGFCEQEFEQT
chain 2: TQVQQLLVSITLQSECDAFPNISSDESYTLLVKEPVAVLKANRVWGALRGLETFSQLVYQDSYGTFTINESTIIDSPRFSHRGILIDTSRHYLPVKIILKTLDAMAFNKFNVLHWHIVDDQSFPYQSITFPELSNKGSYSLSHVYTPNDVRMVIEYARLRGIRVLPEFDTPGHTLSWGKGQKDLLTPCYSRQNKLDSFGPINPTLNTTYSFLTTFFKEISEVFPDQFIHLGGDEVEFKCWESNPKIQDFMRQKGFGTDFKKLESFYIQKVLDIIATINKGSIVWQEVFDDKAKLAPGTIVEVWKDSAYPEELSRVTASGFPVILSAPWYLDLISYGQDWRKYYKVEPLDFGGTQKQKQLFIGGEACLWGEYVDATNLTPRLWPRASAVGERLWSSKDVRDMDDAYDRLTRHRCRMVERGIAAQPLYAGYCNHENM
- detectable NBD-GM3 in the in vitro NBD-GM2 hydrolysis assay with human GM2AP [1]: Only the assay containing Hex A or the variant protein produced detectable levels of NBD-GM3

B2: Hex B (β-hexosaminidase B), purified from human placenta (protein)
chain: TQVQQLLVSITLQSECDAFPNISSDESYTLLVKEPVAVLKANRVWGALRGLETFSQLVYQDSYGTFTINESTIIDSPRFSHRGILIDTSRHYLPVKIILKTLDAMAFNKFNVLHWHIVDDQSFPYQSITFPELSNKGSYSLSHVYTPNDVRMVIEYARLRGIRVLPEFDTPGHTLSWGKGQKDLLTPCYSRQNKLDSFGPINPTLNTTYSFLTTFFKEISEVFPDQFIHLGGDEVEFKCWESNPKIQDFMRQKGFGTDFKKLESFYIQKVLDIIATINKGSIVWQEVFDDKAKLAPGTIVEVWKDSAYPEELSRVTASGFPVILSAPWYLDLISYGQDWRKYYKVEPLDFGGTQKQKQLFIGGEACLWGEYVDATNLTPRLWPRASAVGERLWSSKDVRDMDDAYDRLTRHRCRMVERGIAAQPLYAGYCNHENM
- detectable NBD-GM3 in the in vitro NBD-GM2 hydrolysis assay with human GM2AP (none for Hex B, the negative control) [1]: Only the assay containing Hex A or the variant protein produced detectable levels of NBD-GM3

B3: mature variant α-subunit homodimer (500 mM NaCl DEAE fraction) (protein)
chain: LWPWPQNFQTSDQRYVLYPNNFQFQYDVSSAAQPGCSVLDEAFQRYRDLLFGSGSWPRPYLTGKRHTLEKNVLVVSVVTPGCNQLPTLESVENYTLTINDDQCLLLSETVWGALRGLETFSQLVWKSAEGTFFINKTEIEDFPRFPHRGLLLDTSRHYLPLKSILDTLDVMAYNKLNVFHWHLVDDQSFPYESFTFPELMRKGSYSLSHIYTAQDVKEVIEYARLRGIRVLAEFDTPGHTLSWGPGIPGLLTPCYSGSEPSGTFGPVNPSLNNTYEFMSTFFLEVSSVFPDFYLHLGGDEVDFTCWKSNPEIQDFMRKKGFGEDFKQLESFYIQTLLDIVSSYGKGYVVWQEVFDNKVKIQPDTIIQVWREDIPVNYMKELELVTKAGFRALLSAPWYLNRISYGQDWRKFYKVEPLAFEGTPEQKALVIGGEACMWGEYVDATNLVPRLWPRAGAVAERLWSNKLTRDMDDAYDRLSHFRCELVRRGVAAQPLYAGYCNQEFEQT
- NBD-GM3 produced in the overnight in vitro NBD-GM2 hydrolysis assay (liposomes plus rGM2AP), against Hex A at the same number of MUG units [1]: the variant protein produces at least twice as much NBD-GM3 as Hex A
- detectable NBD-GM3 in the in vitro NBD-GM2 hydrolysis assay with human GM2AP [1]: Only the assay containing Hex A or the variant protein produced detectable levels of NBD-GM3

- fold increase in intracellular MUGS activity of untransfected TSD fibroblasts grown in conditioned media [2]: ~38 fold
- fold increase in intracellular MUGS activity of untransfected TSD fibroblasts grown in conditioned media containing 5 mM mannose-6-phosphate [2]: ~10 fold
B4: secreted variant β-hexosaminidase protein in conditioned media (enzyme)
chain: LWPWPQNFQTSDQRYVLYPNNFQFQYDVSSAAQPGCSVLDEAFQRYRDLLFGSGSWPRPYLTGKRHTLEKNVLVVSVVTPGCNQLPTLESVENYTLTINDDQCLLLSETVWGALRGLETFSQLVWKSAEGTFFINKTEIEDFPRFPHRGLLLDTSRHYLPLKSILDTLDVMAYNKLNVFHWHLVDDQSFPYESFTFPELMRKGSYSLSHIYTAQDVKEVIEYARLRGIRVLAEFDTPGHTLSWGPGIPGLLTPCYSGSEPSGTFGPVNPSLNNTYEFMSTFFLEVSSVFPDFYLHLGGDEVDFTCWKSNPEIQDFMRKKGFGEDFKQLESFYIQTLLDIVSSYGKGYVVWQEVFDNKVKIQPDTIIQVWREDIPVNYMKELELVTKAGFRALLSAPWYLNRISYGQDWRKFYKVEPLAFEGTPEQKALVIGGEACMWGEYVDATNLVPRLWPRAGAVAERLWSNKLTRDMDDAYDRLSHFRCELVRRGVAAQPLYAGYCNQEFEQT
modifications: mannose-6-phosphate on Asn-linked oligosaccharides
